Experimental data reported in US20210230248A1, “Multivalent pharmacophores for high avidity and overexpressed-target specific binding and uses thereof” (priority 2020, published 2021).
pKd: −log10 of the molar value. Entries after “also recorded” stand apart in the source; their conditions may differ. Each block holds one substance with its values, some of them ahead of it. Where no end group is shown, it is not given here.

Columns and labels:
Human recombinant PD-L2 = molecular target: T1, Human recombinant PD-L2 (Homo sapiens, UniProt Q9BQ51); assay: Binding to PD-L2 coated MSD plate; details: test items at 5 nM; plate coated at 40 nM; FIG. 4B
T1 construct: purchased Abcam
T1 sequence (Q9BQ51 20-273): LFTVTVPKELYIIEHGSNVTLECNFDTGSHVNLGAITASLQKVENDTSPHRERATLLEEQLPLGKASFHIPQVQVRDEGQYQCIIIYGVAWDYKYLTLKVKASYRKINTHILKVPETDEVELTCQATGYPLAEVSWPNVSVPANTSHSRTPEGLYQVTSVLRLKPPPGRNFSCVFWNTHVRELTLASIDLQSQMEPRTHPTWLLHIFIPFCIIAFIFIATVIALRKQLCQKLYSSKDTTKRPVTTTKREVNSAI
Procedure: Human recombinant PD-L1, PD-L2 and CD80 (Abcam) at the concentration of 40 nM were coated onto wells of 96-well MSD plate (small spot, 40 μL/well) overnight at 4° C., and then blocked with 3% MSD Blocking Buffer for 1 h. […] The plates were shaken for another 1 h at room temperature. After washing, SULFO-TAG anti-mouse IgG antibody was added into the plates. The plates were further incubated for 1 h and then washed and read after adding 1×MSD Read Buffer. SULFO-TAG anti-human IgG antibody was added into the plate of PD-L1 Fc chimera proteins. The wells without coating were used as background binding.

CD47 = CD47 (Homo sapiens, UniProt Q08722); details: Ho et al. 2015; read-out: Kd CD47/SIRPα; cited from earlier work
[1] = molecular target: T2, PD-L1 overexpressing SU-DHL-1 cells (Homo sapiens, UniProt Q9NZQ7); assay: Competitive binding assay on PD-L1 overexpressing SU-DHL-1 cells; details: antibody at ~33.3 nM, assuming linear relationship
T2 construct: endogenous in cells; host or cells: SU-DHL-1 cells
Procedure: PC3, a low PD-L1 expressing cell is used as a control.
PE-conjugated mouse anti-human PD-L1 antibody (Clone MIN1, eBioscience) at the final concentration of 0.5 μg/100 μL (˜33.3 nM) was mixed with 4-arm PEG-2K PD-1ecto or 6-arm PEG-3.4K PD-1ecto titrated from 50 nM to 1 nM in Stain Buffer. SU-DHL-1 cells (0.5×10^6 cells) were resuspended in each titration of reagent in a final volume of 100 μL per well. After incubation for 3 h on ice with occasional mixing, the cells were washed 3 times. The amount of anti-PD-L1 antibody bound to the cells was quantified by the fluorescence intensity of PE using flow cytometry.

[2] = tested on: H1299, SW480, HT-1080 and PC3 cells; assay: Cell adhesion assay on vitronectin coated plate; assay type: cell-based, human; details: four uPAR overexpressing cell lines; 3 h; various concentrations
Procedure: For adhesion of cancer cells to vitronectin, 96-well plate was coated overnight with vitronectin (Thermo Fisher Scientific) at 5 μg/mL in PBS at 4° C., 50 μL/well. The wells without coating were used as negative controls. The plate was then blocked with 3% MSD Blocking Buffer for 2 h at room temperature. Four uPAR overexpressing human cancer lines were used for the assay: non-small cell lung cancer line H1299, colorectal cancer line SW480, fibrosarcoma line HT-1080 and prostate cancer line PC3. The cells were detached from culture flasks by trypsin/EDTA, resuspended in complete culture medium in a 50 mL conical tube, and incubated for 1 h at 37° C. in 5% CO2 incubator to allow receptor recovery. Cells were then washed with serum-free medium and resuspended in DMEM medium with 0.5% BSA. 50,000 cells in 100 μL were plated into each well with various concentrations of 4-arm and 6-arm PEG-GFD pharmacophores, and uPAR blocking antibody, VIM5. The plates were incubated at 37° C. in 5% CO2 incubator for 3 h, and washed 4 times with PBS with 0.5% BSA. The number of adherent cells in each well was quantified by CellTiter-Glo (Promega).

[3] = molecular target: T3, uPAR overexpressing Hela cells (Homo sapiens, UniProt Q03405); assay: Competitive binding assay on uPAR overexpressing Hela cells; details: ratio of IC50 values
T3 construct: endogenous in cells; host or cells: Hela cells
Excerpt: This assay is to measure the binding avidity of multivalent PEG-GFD pharmacophores to uPAR overexpressing Hela cells in comparison to uPA. Hela cells express uPAR but not uPA (Rabbani et al., Neoplasia, 2010, 12(10); 778-88), and therefore competition from endogenous uPA can be excluded.
Mouse anti-uPAR (Clone VIM5) is an uPAR blocking antibody (Sillaber et al., J Biol Chem, 1997, 272(12):7824-32). The potency of multivalent PEG-GFD pharmacophores and native uPA to compete against the antibody in binding to the overexpressed uPAR on the surface of Hela cells is measured and compared in this assay.
Hela cells were detached from culture flasks by trypsin/EDTA, resuspended in complete culture medium in a 50 mL conical tube, and incubated for 1 h at 37° C. in 5% CO2 incubator to allow receptor recovery. PE-conjugated anti-uPAR antibody (Clone VIM5; Invitrogen) at the final concentration of 0.5 μg/100 μL (33.33 nM) was mixed with titrated concentrations of 4-arm PEG-GFD and 6-arm PEG-GFD, and recombinant human uPA (Biolegend) in Stain Buffer. The mixture was added into Hela cells (500,000 cells in 100 μL; final density). […] The fluorescent intensity of PE on Hela cells was quantified by flow cytometry and plotted against the titration of 4-arm PEG-GFD, 6-arm PEG-GFD and uPA. The binding avidity of multivalent PEG-GFD pharmacophores relative to native uPA can be calculated.

H1299 and HT-1080 cells [4] = assay: Chemotaxis assay (fibronectin coated transwell); assay type: cell-based, human; details: 10% FBS chemoattractant, 16 h
Procedure: Chemotaxis assay was performed using BD BioCoat 24-well transwell with 8 μm pore size filter which is coated with fibronectin (Corning). For the study, H1299 and HT-1080 cells were detached from culture flasks with trypsin/EDTA, and then the trypsin was deactivated by adding the complete medium. The cells were washed with serum-free medium twice and resuspended at the final density of 50,000 cells in 500 μL DMEM medium supplemented with 0.5% BSA. The cells were treated with multivalent pharmacophores and uPAR blocking antibody for 1 h at 37° C. in 5% CO2 incubator. 650 μL of DMEM with 10% FBS was used as chemoattractant and added into the lower chamber. Serum-free DMEM medium was used as a negative control, and no drug treatment well was considered as 100% migration. After placing the upper chamber into the lower chamber, 500 μL cell suspensions were added to the upper chamber. 4-arm PEG-GFD, 6-arm PEG-GFD and uPAR blocking antibody, VIM5, with various concentrations were added in both upper and lower chambers. The transwell was incubated at 37° C. in 5% CO2 incubator for 16 h. […] The number of cells migrated past the filter was quantify by reading the solution in plate reader after transferring into a white 96-well plates.

[5] = molecular target: T4, HT-1080 cells in which the overexpressed uPAR is occupied by endogenous uPA (Homo sapiens, UniProt Q03405); assay: Displacement of endogenous uPA from uPAR on HT-1080 cells; assay type: binding; details: various concentrations; 0.5-4 h on ice
T4 construct: endogenous in cells; host or cells: HT-1080 cells
Procedure: Human fibrosarcoma cell HT-1080 overexpresses both uPA and uPAR and the uPAR is occupied by the endogenous uPA. […] As a control, the competitive potency of uPAR blocking antibody (Clone VIM5) was also tested.
HT-1080 cells were plated in 96-well plate at 30,000 cells/well in 100 μL DMEM medium supplemented with 10% FBS. After overnight incubation, the culture medium was removed and 4-arm PEG-GFD, 6-arm PEG-GFD and mouse anti-uPAR antibody (Clone VIM5, Invitrogen) with various concentrations in Stain Buffer were added into each well. The cells were incubated on ice for 0.5, 1, 2, 3 and 4 h. Then, the cells were washed twice with cold PBS and fixed in 4% paraformaldehyde for 30 min. The plate was blocked with 3% MSD Blocking Buffer for 1 h and the cells were stained with mouse anti-human uPA catalytic domain antibody (Clone 204212; R&D Systems) to quantify the amount of endogenous uPA still associated with the cells. After 2 h incubation with the antibody, HRP-conjugated anti-mouse antibody was added for another hour of incubation. TMB was then added and followed by addition of stop solution. The plate was read at 450 nm absorbance to quantify the endogenous uPA.

H1299 and HT-1080 cells [6] = assay: Matrigel invasion assay; assay type: cell-based, human; details: 10 nM, 24 h
Procedure: The migration of cells through Matrigel indicates the ability of the cells to digest the extracellular matrix during the process of migration. The Matrigel invasion assay is similar to the chemotaxis assay above except that the 8 μm pore size filter is coated with Matrigel. BD BioCoat Matrigel Invasion Chamber (Corning) was used for the assay with H1299 and HT-1080 cells. 4-arm PEG-GFD, 6-arm PEG-GFD and the blocking antibody VIM5 were used at the concentration of 10 nM. After 24 h treatment, the Matrigel along with the cells remaining on the upper surface of filter in the upper chamber was scraped off with a cotton swab. The migrated cells were measured with CellTiter-Glo as described above.

T2 sequence (Q9NZQ7 19-290): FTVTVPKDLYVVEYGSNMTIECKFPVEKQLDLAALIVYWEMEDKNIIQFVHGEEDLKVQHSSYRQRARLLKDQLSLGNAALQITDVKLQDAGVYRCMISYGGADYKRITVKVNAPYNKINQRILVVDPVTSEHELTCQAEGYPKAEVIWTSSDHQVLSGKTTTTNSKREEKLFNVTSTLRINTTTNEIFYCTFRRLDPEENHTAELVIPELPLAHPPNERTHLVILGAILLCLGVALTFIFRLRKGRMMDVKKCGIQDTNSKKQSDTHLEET
T3 sequence (Q03405 23-335): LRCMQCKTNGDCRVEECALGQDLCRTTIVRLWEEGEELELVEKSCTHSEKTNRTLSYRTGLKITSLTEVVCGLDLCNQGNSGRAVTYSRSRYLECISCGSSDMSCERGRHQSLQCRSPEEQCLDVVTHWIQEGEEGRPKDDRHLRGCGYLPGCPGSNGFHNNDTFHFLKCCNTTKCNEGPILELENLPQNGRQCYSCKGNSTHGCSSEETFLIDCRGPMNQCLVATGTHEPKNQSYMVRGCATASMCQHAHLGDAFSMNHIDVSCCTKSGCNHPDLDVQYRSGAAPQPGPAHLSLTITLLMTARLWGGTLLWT
T4 sequence (Q03405 23-305 limits assumed): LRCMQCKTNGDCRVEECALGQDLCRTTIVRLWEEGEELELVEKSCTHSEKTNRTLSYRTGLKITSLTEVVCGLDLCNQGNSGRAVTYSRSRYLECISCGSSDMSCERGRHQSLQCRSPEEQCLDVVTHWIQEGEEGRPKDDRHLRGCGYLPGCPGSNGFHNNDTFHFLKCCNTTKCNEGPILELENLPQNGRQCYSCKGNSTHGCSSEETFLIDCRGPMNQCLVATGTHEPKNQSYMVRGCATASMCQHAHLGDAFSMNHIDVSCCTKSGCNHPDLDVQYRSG
Sequence of CD47 (Q08722 19-323): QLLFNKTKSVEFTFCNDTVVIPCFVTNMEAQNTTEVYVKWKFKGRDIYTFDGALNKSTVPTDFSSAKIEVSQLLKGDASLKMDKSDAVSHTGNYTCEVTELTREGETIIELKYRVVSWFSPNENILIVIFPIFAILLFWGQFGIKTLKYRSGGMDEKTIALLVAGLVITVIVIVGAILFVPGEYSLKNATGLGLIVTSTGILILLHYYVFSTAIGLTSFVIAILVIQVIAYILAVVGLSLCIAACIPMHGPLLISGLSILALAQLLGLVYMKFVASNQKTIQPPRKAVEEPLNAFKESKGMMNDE

binding to PD-L2 coated plate (Human recombinant PD-L2): bound
Substance: PD-1 Fc chimera: recombinant human PD-1 Fc chimera protein (R&D Systems) [reference compound]

Substance: SIRPα: signal-regulatory protein alpha, binds CD47 through its N-terminal IgV-like domain
pKd (CD47): 6.30 to 6.52

fold more potent than the PD-L1 blocking antibody [1]: about 2.6 fold
Substance: 4-arm PEG-2K PD-1ecto: PD-1 ectodomain (aa. 21-169) site-specifically C-terminally conjugated to 4-arm PEG-2K, tetravalent pharmacophore

fold increase in binding activity relative to native uPA [3]: ~85 fold
displacement of bound uPA from uPAR [5]: generally more potent than 4-arm PEG-GFD
Substance: 6-arm PEG-GFD: growth factor-like domain of uPA conjugated to 6-arm PEG-3.4K (VPSNCDCLNGGTCVSNKYFSNIHWCNCPKKFGGQHCEIDKSKT; not fully specified (C-terminus); ends and bridges not checked; also: conjugated to 6-arm PEG-3.4K (site not given here))
inhibition of adhesion to vitronectin [2]: inhibited the adhesion of all four cell lines to vitronectin dose-dependently; also recorded: more potent than 4-arm PEG-GFD
migration of cells to the lower chamber (chemotaxis) (H1299 and HT-1080 cells [4]): significantly reduced migration
Matrigel invasion (H1299 and HT-1080 cells [6]): significantly inhibited
